Measured values: patent US4605614A, “Method for measuring plasmin” (Nitto Boseki Co., Ltd., priority 1981, dated 1986)

Legend:
Experiment in all cases: Km, Vmax and Vmax/Km of substrates for plasmin (pig)
Format in all cases: biochemical, Porcine (pig)
[1] = substrate: CC(C)[C@@H](N)C(=O)N[C@@H](Cc1ccccc1)C(=O)N[C@@H](CCCCN)C(=O)Nc1ccc(O)c(C(=O)O)c1; settings: other: TABLE 2, CHA substrates, plasmin (pig), 2,6-xylenol 615 nm
Excerpt: (§1) The substrates produced by the above examples were used in the measurement of plasmin as follows: The principle of this measurement comprises quantitatively analyzing the decomposition product p-nitroaniline or 3-carboxy-4-hydroxyaniline produced by the enzymatic hydrolysis, by measuring the absorbance (O.D.) directly at 405 nm in the case of p-nitroaniline and, in the case of the 3-carboxy-4-hydroxyaniline at 615 nm after condensing it with 2,6-xylenol in the presence of an oxidant to develop a color.
(§2) For the measurements of these constants, the following method is adopted:
(§3) The enzyme and the substrate are mixed in a buffer solution and subjected to the hydrolysis for 30 seconds. The concentration of the substrate [S] is changed and the enzyme concentration is maintained constant. By measuring the absorbance (O.D.), the initial velocity of the hydrolysis can be determined. Where 1/V is plotted as a function of 1/[S], there is obtained a Lineweaver and Burk's linea from which graph the Vmax and Km can be determined.

[2] = substrate: CCCC(=O)NCCCC[C@@H](N)C(=O)N[C@@H](Cc1ccccc1)C(=O)N[C@@H](CCCCN)C(=O)Nc1ccc(O)c(C(=O)O)c1; settings: other: TABLE 2, CHA substrates, plasmin (pig), 2,6-xylenol 615 nm
Excerpt: as §1, §2, §3

[3] = substrate: CS(=O)(=O)NCCCC[C@@H](N)C(=O)N[C@@H](Cc1ccccc1)C(=O)N[C@@H](CCCCN)C(=O)Nc1ccc(O)c(C(=O)O)c1; settings: other: TABLE 2, CHA substrates, plasmin (pig), 2,6-xylenol 615 nm
Excerpt: as §1, §2, §3

[4] = substrate: Cc1cc(C)c(S(=O)(=O)NCCCC[C@@H](N)C(=O)N[C@@H](Cc2ccccc2)C(=O)N[C@@H](CCCCN)C(=O)Nc2ccc(O)c(C(=O)O)c2)c(C)c1; settings: other: TABLE 2, CHA substrates, plasmin (pig), 2,6-xylenol 615 nm
Excerpt: as §1, §2, §3

[5] = substrate: Cc1ccc(C(=O)NCCCC[C@@H](N)C(=O)N[C@@H](Cc2ccccc2)C(=O)N[C@@H](CCCCN)C(=O)Nc2ccc(O)c(C(=O)O)c2)cc1; settings: other: TABLE 2, CHA substrates, plasmin (pig), 2,6-xylenol 615 nm
Excerpt: as §1, §2, §3

[6] = substrate: Cc1ccc(C(=O)NCCCC[C@@H](N)C(=O)N[C@@H](Cc2ccccc2)C(=O)N[C@@H](CCCCN)C(=O)Nc2ccc([N+](=O)[O-])cc2)cc1; settings: other: TABLE 1, PNA substrates, plasmin (pig), 405 nm
Excerpt: as §1, §2, §3

[7] = substrate: Cc1ccc(CCOC(=O)CC[C@@H](N)C(=O)N[C@@H](Cc2ccccc2)C(=O)N[C@@H](CCCCN)C(=O)Nc2ccc([N+](=O)[O-])cc2)cc1; settings: other: TABLE 1, PNA substrates, plasmin (pig), 405 nm
Excerpt: as §1, §2, §3

[8] = substrate: Cc1ccc(S(=O)(=O)NCCCC[C@H](N)C(=O)N[C@@H](Cc2ccccc2)C(=O)N[C@@H](CCCCN)C(=O)Nc2ccc(O)c(C(=O)O)c2)cc1; settings: other: TABLE 2, CHA substrates, plasmin (pig), 2,6-xylenol 615 nm
Excerpt: as §1, §2, §3

[9] = substrate: Cc1ccc(S(=O)(=O)NCCC[C@@H](N)C(=O)N[C@@H](Cc2ccccc2)C(=O)N[C@@H](CCCCN)C(=O)Nc2ccc(O)c(C(=O)O)c2)cc1; settings: other: TABLE 2, CHA substrates, plasmin (pig), 2,6-xylenol 615 nm
Excerpt: as §1, §2, §3

[10] = substrate: Cc1ccc(S(=O)(=O)Oc2ccc(C[C@@H](N)C(=O)N[C@@H](CC(C)C)C(=O)N[C@@H](CCCCN)C(=O)Nc3ccc(O)c(C(=O)O)c3)cc2)cc1; settings: other: TABLE 2, CHA substrates, plasmin (pig), 2,6-xylenol 615 nm
Excerpt: as §1, §2, §3

[11] = substrate: Cc1ccc(S(=O)(=O)Oc2ccc(C[C@@H](N)C(=O)N[C@@H](Cc3ccccc3)C(=O)N[C@@H](CCCCN)C(=O)Nc3ccc(O)c(C(=O)O)c3)cc2)cc1; settings: other: TABLE 2, CHA substrates, plasmin (pig), 2,6-xylenol 615 nm
Excerpt: as §1, §2, §3

[12] = substrate: NCCCC[C@@H](N)C(=O)N[C@@H](Cc1ccccc1)C(=O)N[C@@H](CCCCN)C(=O)Nc1ccc(O)c(C(=O)O)c1; settings: other: TABLE 2, CHA substrates, plasmin (pig), 2,6-xylenol 615 nm
Excerpt: as §1, §2, §3

[13] = substrate: NCCCC[C@H](NC(=O)[C@H](Cc1ccccc1)NC(=O)[C@H](N)CC(=O)OC1CCCCC1)C(=O)Nc1ccc(O)c(C(=O)O)c1; settings: other: TABLE 2, CHA substrates, plasmin (pig), 2,6-xylenol 615 nm
Excerpt: as §1, §2, §3

[14] = substrate: NCCCC[C@H](NC(=O)[C@H](Cc1ccccc1)NC(=O)[C@H](N)CCC(=O)NCCCCc1ccccc1)C(=O)Nc1ccc([N+](=O)[O-])cc1; settings: other: TABLE 1, PNA substrates, plasmin (pig), 405 nm
Excerpt: as §1, §2, §3

[15] = substrate: NCCCC[C@H](NC(=O)[C@H](Cc1ccccc1)NC(=O)[C@H](N)CCC(=O)NCCCc1ccccc1)C(=O)Nc1ccc([N+](=O)[O-])cc1; settings: other: TABLE 1, PNA substrates, plasmin (pig), 405 nm
Excerpt: as §1, §2, §3

[16] = substrate: NCCCC[C@H](NC(=O)[C@H](Cc1ccccc1)NC(=O)[C@H](N)CCC(=O)NCCc1ccccc1)C(=O)Nc1ccc(O)c(C(=O)O)c1; settings: other: TABLE 2, CHA substrates, plasmin (pig), 2,6-xylenol 615 nm
Excerpt: as §1, §2, §3

[17] = substrate: NCCCC[C@H](NC(=O)[C@H](Cc1ccccc1)NC(=O)[C@H](N)CCC(=O)OCCc1ccccc1)C(=O)Nc1ccc([N+](=O)[O-])cc1; settings: other: TABLE 1, PNA substrates, plasmin (pig), 405 nm
Excerpt: as §1, §2, §3

[18] = substrate: NCCCC[C@H](NC(=O)[C@H](Cc1ccccc1)NC(=O)[C@H](N)CCCCNC(=O)Cc1ccccc1)C(=O)Nc1ccc(O)c(C(=O)O)c1; settings: other: TABLE 2, CHA substrates, plasmin (pig), 2,6-xylenol 615 nm
Excerpt: as §1, §2, §3

B1: plasmin (pig) (Sus scrofa) (protein)
chain: RIYLSECKTGNGKNYRGTTSKTKSGVICQKWSVSSPHIPKYSPEKFPLAGLEENYCRNPDNDEKGPWCYTTDPETRFDYCDIPECEDECMHCSGEHYEGKISKTMSGIECQSWGSQSPHAHGYLPSKFPNKNLKMNYCRNPDGEPRPWCFTTDPNKRWEFCDIPRCTTPPPTSGPTYQCLKGRGENYRGTVSVTASGHTCQRWSAQSPHKHNRTPENFPCKNLEENYCRNPDGETAPWCYTTDSEVRWDYCKIPSCGSSTTSTEYLDAPVPPEQTPVAQDCYRGNGESYRGTSSTTITGRKCQSWVSMTPHRHEKTPGNFPNAGLTMNYCRNPDADKSPWCYTTDPRVRWEYCNLKKCSETEQQVTNFPAIAQVPSVEDLSEDCMFGNGKRYRGKRATTVAGVPCQEWAAQEPHRHSIFTPETNPRAGLEKNYCRNPDGDDNGPWCYTTNPQKLFDYCDVPQCVTSSFDCGKPKVEPKKCPARVVGGCVSIPHSWPWQISLRHRYGGHFCGGTLISPEWVLTAKHCLEKSSSPSSYKVILGAHEEYHLGEGVQEIDVSKLFKEPSEADIALLKLSSPAIITDKVIPACLPTPNYVVADRTACYITGWGETKGTYGAGLLKEARLPVIENKVCNRYEYLGGKVSPNELCAGHLAGGIDSCQGDSGGPLVCFEKDKYILQGVTSWGLGCALPNKPGVYVRVSRFVTWIEEIMRRN
Km [1]: 631 µM | Km [2]: 239 µM | Km [3]: 326 µM | Km [4]: 272 µM | Km [5]: 76.2 µM | Km [6]: 15.5 µM | Km [7]: 42.8 µM | Km [8]: 292 µM | Km [9]: 542 µM | Km [10]: 1440 µM | Km [11]: 154 µM | Km [12]: 222 µM | Km [13]: 379 µM | Km [14]: 45.4 µM | Km [15]: 39.3 µM | Km [16]: 397 µM | Km [17]: 31.1 µM | Km [18]: 357 µM
